Laboratory results from IntAct's records for PubMed 23348841.

B1: Nonsense-mediated mRNA decay factor SMG5 (Homo sapiens), Q9UPR3 (parent)
chain: MSQGPPTGESSEPEAKVLHTKRLYRAVVEAVHRLDLILCNKTAYQEVFKPENISLRNKLRELCVKLMFLHPVDYGRKAEELLWRKVYYEVIQLIKTNKKHIHSRSTLECAYRTHLVAGIGFYQHLLLYIQSHYQLELQCCIDWTHVTDPLIGCKKPVSASGKEMDWAQMACHRCLVYLGDLSRYQNELAGVDTELLAERFYYQALSVAPQIGMPFNQLGTLAGSKYYNVEAMYCYLRCIQSEVSFEGAYGNLKRLYDKAAKMYHQLKKCETRKLSPGKKRCKDIKRLLVNFMYLQSLLQPKSSSVDSELTSLCQSVLEDFNLCLFYLPSSPNLSLASEDEEEYESGYAFLPDLLIFQMVIICLMCVHSLERAGSKQYSAAIAFTLALFSHLVNHVNIRLQAELEEGENPVPAFQSDGTDEPESKEPVEKEEEPDPEPPPVTPQVGEGRKSRKFSRLSCLRRRRHPPKVGDDSDLSEGFESDSSHDSARASEGSDSGSDKSLEGGGTAFDAETDSEMNSQESRSDLEDMEEEEGTRSPTLEPPRGRSEAPDSLNGPLGPSEASIASNLQAMSTQMFQTKRCFRLAPTFSNLLLQPTTNPHTSASHRPCVNGDVDKPSEPASEEGSESEGSESSGRSCRNERSIQEKLQVLMAEGLLPAVKVFLDWLRTNPDLIIVCAQSSQSLWNRLSVLLNLLPAAGELQESGLALCPEVQDLLEGCELPDLPSSLLLPEDMALRNLPPLRAAHRRFNFDTDRPLLSTLEESVVRICCIRSFGHFIARLQGSILQFNPEVGIFVSIAQSEQESLLQQAQAQFRMAQEEARRNRLMRDMAQLRLQLEVSQLEGSLQQPKAQSAMSPYLVPDTQALCHHLPVIRQLATSGRFIVIIPRTVIDGLDLLKKEHPGARDGIRYLEAEFKKGNRYIRCQKEVGKSFERHKLKRQDADAWTLYKILDSCKQLTLAQGAGEEDPSGMVTIITGLPLDNPSVLSGPMQAALQAAAHASVDIKNVLDFYKQWKEIG
partner: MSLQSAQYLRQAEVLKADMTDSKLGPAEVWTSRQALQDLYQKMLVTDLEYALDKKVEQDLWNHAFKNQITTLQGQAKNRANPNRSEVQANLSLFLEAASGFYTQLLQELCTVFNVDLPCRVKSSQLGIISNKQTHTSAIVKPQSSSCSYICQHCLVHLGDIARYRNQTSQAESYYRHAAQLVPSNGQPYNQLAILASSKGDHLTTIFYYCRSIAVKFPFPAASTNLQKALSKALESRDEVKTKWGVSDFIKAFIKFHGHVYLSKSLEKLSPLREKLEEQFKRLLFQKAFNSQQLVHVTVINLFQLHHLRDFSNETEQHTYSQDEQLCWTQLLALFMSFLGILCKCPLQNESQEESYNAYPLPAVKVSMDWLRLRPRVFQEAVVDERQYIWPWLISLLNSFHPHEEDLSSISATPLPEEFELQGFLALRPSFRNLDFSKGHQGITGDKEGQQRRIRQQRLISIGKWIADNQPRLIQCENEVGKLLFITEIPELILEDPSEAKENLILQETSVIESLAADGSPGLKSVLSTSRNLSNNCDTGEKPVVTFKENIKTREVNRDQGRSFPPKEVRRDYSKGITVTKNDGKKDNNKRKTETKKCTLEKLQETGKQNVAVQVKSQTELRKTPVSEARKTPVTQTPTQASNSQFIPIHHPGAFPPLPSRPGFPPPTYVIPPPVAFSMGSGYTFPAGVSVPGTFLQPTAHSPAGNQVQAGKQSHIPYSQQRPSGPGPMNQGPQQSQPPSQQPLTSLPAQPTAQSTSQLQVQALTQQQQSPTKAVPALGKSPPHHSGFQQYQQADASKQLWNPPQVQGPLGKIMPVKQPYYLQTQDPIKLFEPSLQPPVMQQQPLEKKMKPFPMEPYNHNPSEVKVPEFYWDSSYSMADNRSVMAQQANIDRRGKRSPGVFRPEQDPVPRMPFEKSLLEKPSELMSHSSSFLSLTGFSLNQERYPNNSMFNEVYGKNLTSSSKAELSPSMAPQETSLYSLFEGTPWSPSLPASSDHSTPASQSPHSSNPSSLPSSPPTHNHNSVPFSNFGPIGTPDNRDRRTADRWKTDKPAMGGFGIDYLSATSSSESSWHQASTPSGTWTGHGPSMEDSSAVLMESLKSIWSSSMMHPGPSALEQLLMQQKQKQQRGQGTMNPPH
B2: Nonsense-mediated mRNA decay factor SMG7 (Homo sapiens), Q92540 (parent)
chain: B1 partner
partner: B1 chain

Variants of: B1
Conditions: with smg7_human SMG7, Q92540

| Variant | effect of a mutation on the interaction |
| --- | --- |
| G120E | disrupting interaction strength |

Variants of: B2
Conditions: with smg5_human SMG5, Q9UPR3

| Variant | effect of a mutation on the interaction |
| --- | --- |
| G100E | disrupting interaction strength |
| T103E | disrupting interaction strength |
